{"source": "paper PMC5353646", "about": "“Allosteric modulation of peroxisomal membrane protein recognition by farnesylation of the peroxisomal import receptor PEX19” (Nature Communications, 2017)", "key": {"[1]": {"system": "PEX19-deficient human fibroblasts (ΔPEX19 T)", "experiment": "Functional complementation of PEX19-deficient fibroblasts (peroxisomal protein import)", "type": "cell-based", "settings": "full-length PEX19 variants, 72 h after transfection", "excerpt": "A bicistronic expression plasmid coding for eGFP-PTS1 and non-tagged PEX14 (pMF1220)[43] was kindly provided by Marc Fransen (Leuven, Belgium). pIRES2-HsPEX19-eGFP-PTS1 was constructed by replacing the open reading frame of PEX14 (BglII/SalI) with a DNA-cassette encoding the full-length open reading frame of human PEX19 as derived from BamHI/SalI digestion of pAH05 (ref. [44]). Single point mutations were introduced into the PEX19 sequence by Quickchange XL Site-directed Mutagenesis kit (Stratagene) using primer pairs (Supplementary Table 1). The bicistronic expression vectors coding for PEX19 variants and eGFP-PTS1 were transfected into the human cell-line ΔPEX19 T which was derived from PEX19-deficient Zellweger patient fibroblasts. ΔPEX19 T cells, characterized by a defect in peroxisome biogenesis were routinely authenticated by functional complementation assays as described below and checked for mycoplasma contamination using Venor GeM Advance Mycoplasm Detection Kit (Minerva Biolabs). The efficiency of transfection according to the Amaxa Cell Line Nucleofector Kit R protocol (Lonza Cologne AG) was always around 90%. After 72 h of transfection, cells were subjected to fluorescence and immunofluorescence microscopy using polyclonal antiserum against human PEX14 (ref. [45]) (1:400 diluted) or monoclonal antibodies against human PEX19 (BD Biosciences, MA5-17266 Thermo Scientific; 1:400 diluted). Statistical analysis was carried out from three independent transfections of each pIRES-PEX19-eGFP-PTS1 expression plasmid. Based on the appearance of eGFP-PTS1 fluorescence pattern, about 100 cells of each experiment were visually categorized into three classes, (i) full complementation of peroxisomal import as visualized by punctuate staining pattern, (ii) partial complementation as indicated by diffuse cytosolic staining with few dots, (iii) no complementation resulting in only cytosolic staining. All micrographs were recorded on a Zeiss Axioplan 2 microscope with a Zeiss Plan-Apochromat × 63/1.4 oil objective and an Axiocam MR digital camera, and were processed with AxioVision 4.6 software (Zeiss, Jena, Germany). The steady-state level of PEX19 expression was assessed by immunoblot analysis, using monoclonal mouse antibodies against HsPEX19 (BD Biosciences, MA5-17266; 1:1,000 diluted) (Supplementary Fig. 9)."}, "[2]": {"experiment": "15N NMR relaxation, tumbling correlation time", "type": "physicochemical", "settings": "for tumbling correlation time τc: 15N R2/R1 ratio, 750 MHz, 298 K, PEX19 CTD residues 161–299; for oligomeric state in solution: from τc, 15N NMR relaxation", "excerpt": "NMR spectra were acquired at 298 K on a Bruker Avance III 600-MHz spectrometer with a TCI cryo-probe head, an Avance III 750-MHz spectrometer with a TXI probe head, or an Avance 900 instrument with a TXI cryo-probe head. Spectra were processed using NMRPipe[31] and analysed with Sparky[32]. Backbone assignment was done semi-automatically with MARS[33]. Backbone and side chain assignments were obtained from HNCA, HNCACB, CBCA(CO)NH, H(C)CH-TOCSY and (H)CCH-TOCSY spectra. ^13C- and ^15N- edited NOESY spectra with a mixing time of 70 ms were recorded to derive distance restraints. For NOEs between PEX19 and the farnesyl group, isotope-edited and filtered 3D NOESY spectra (70 and 100 ms mixing times) were acquired using specific isotope-labelled samples. ^15N R1, R2 relaxation rates and {^1H}-^15N heteronuclear NOEs were recorded at an Avance III 750 MHz spectrometer. Local correlation times were derived from the ^15N R2/R1 ratio[35]. For determination of solvent paramagnetic relaxation enhancement rates, gadolinium diethylene-triamine-penta-acetic-acid bismethylamide (Gd(DTPA-BMA)) was titrated to the protein samples[36][37][38]. Saturation recovery ^1H,^15N HSQC experiments with recovery times from 0.01 to 3 s were recorded at concentrations of 0, 1, 2, 3, 5, 7 and 10 mM Gd(DTPA-BMA). Peak intensities were fitted to an exponential recovery function according to equation I(τ)=I0−Aexp(−R1τ), where τ is the recovery delay, I(τ) is the peak intensity measured for the recovery delay τ, I0 is the maximum peak intensity, R1 is the longitudinal proton relaxation rate and A is the signal amplitude. To obtain the sPRE value, the proton R1 rates were collected for all measured concentrations of Gd(DTPA-BMA) cpara and a linear regression for the equation R1 (cpara)=msPRE cpara+ [drawing 1] was performed, where R1 (cpara) is the proton R1 measured at the concentration cpara of the paramagnetic compound, the slope msPRE corresponds to the sPRE and [drawing 2] is the fitted proton R1 in the absence of the paramagnetic compound[36]. For NMR titrations an ALDP peptide (sequence: AAKAGMNRVFLQRLL, residues 62–76 of human ALDP) was dissolved to a concentration of 5 mM in NMR buffer and added to ^15N-labelled PEX19 CTD with and without farnesylation in the same buffer up to a protein-peptide molar ratio of 1:10."}, "[3]": {"experiment": "Hydrophobic interaction chromatography", "type": "physicochemical", "settings": "Butyl Sepharose FF, linear decreasing (NH4)2SO4 650–0 mM, 20 ml, 280 nm; for elution volume after start of the gradient: 20 mM potassium phosphate, pH 6.5, 50 mM NaCl, 500 μg protein; for ΔV, difference in elution volume between farnesylated and non-farnesylated protein: pH 6.5", "procedure": "Purified PEX19 CTD and variants were adjusted to a buffer containing 650 mM (NH4)2SO4 and 500 μg protein was subjected to equilibrated Butyl Sepharose FF column (20 mM potassium phosphate, pH 6.5, 50 mM NaCl and 650 mM (NH4)2SO4). After washing, bound protein was eluted with linear decreasing (NH4)2SO4 concentrations (650–0 mM (NH4)2SO4, 20 ml). Eluted proteins were detected using 280 nm absorption. The binding strength is indicated by the elution volume and correlates with protein hydrophobicity."}}, "note": "Entries after “also recorded” stand apart in the source; their conditions may differ.", "data": [{"molecule": "PEX19 I195K: full-length PEX19 variant I195K (protein, UniProt P40855 1-299, looked up, variant I195K, full-length) MAAAEEGCSVGAEADRELEELLESALDDFDKAKPSPAPPSTTTAPDASGPQKRSPGDTAKDALFASQEKFFQELFDSELASQATAEFEKAMKELAEEEPHLVEQFQKLSEAAGRVGSDMTSQQEFTSCLKETLSGLAKNATDLQNSSMSEEELTKAMEGLGMDEGDGEGNILPIMQSIMQNLLSKDVLYPSLKEKTEKYPEWLQSHRESLPPEQFEKYQEQHSVMCKICEQFEAETPTDSETTQKARFEMVLDLMQQLQDLGHPPKELAGEMPPGLNFDLDALNLSGPPGASGEQCLIM", "values": [{"measurement": "functional complementation (in words)", "setting": "[1]", "result": "impaired although less strongly"}, {"measurement": "cells showing restored peroxisomal protein transport (functional complementation)", "setting": "[1]; at least 100 cells in three independent transfections, series of Fig. 3c", "result": 23, "unit": "%"}]}, {"molecule": "PEX19 P273F/P274F: full-length PEX19 with two lid prolines replaced by phenylalanine (protein, UniProt P40855 1-299, looked up, variant P273F P274F, full-length, full-length PEX19 with two lid prolines replaced by phenylalanine) MAAAEEGCSVGAEADRELEELLESALDDFDKAKPSPAPPSTTTAPDASGPQKRSPGDTAKDALFASQEKFFQELFDSELASQATAEFEKAMKELAEEEPHLVEQFQKLSEAAGRVGSDMTSQQEFTSCLKETLSGLAKNATDLQNSSMSEEELTKAMEGLGMDEGDGEGNILPIMQSIMQNLLSKDVLYPSLKEITEKYPEWLQSHRESLPPEQFEKYQEQHSVMCKICEQFEAETPTDSETTQKARFEMVLDLMQQLQDLGHPPKELAGEMFFGLNFDLDALNLSGPPGASGEQCLIM", "values": [{"measurement": "cells displaying import-competent peroxisomes (complementation rate)", "setting": "[1]; 100 cells each of three independent transfections, series of Fig. 5d", "result": 20, "unit": "%"}]}, {"molecule": "PEX19 CTD: human PEX19 C-terminal domain (residues 161–299) (protein, left off: His6, end not stated, cleaved) GMDEGDGEGNILPIMQSIMQNLLSKDVLYPSLKEITEKYPEWLQSHRESLPPEQFEKYQEQHSVMCKICEQFEAETPTDSETTQKARFEMVLDLMQQLQDLGHPPKELAGEMPPGLNFDLDALNLSGPPGASGEQCLIM", "values": [{"measurement": "tumbling correlation time τc", "setting": "[2]", "result": 11.4, "unit": "ns"}, {"measurement": "oligomeric state in solution", "setting": "[2]", "result": "monomeric in solution"}, {"measurement": "elution volume after start of the gradient", "setting": "[3]", "result": 9.66, "unit": "mL"}, {"measurement": "ΔV, difference in elution volume between farnesylated and non-farnesylated protein", "setting": "[3]", "result": 5.08, "unit": "mL"}]}, {"molecule": "I195K farn: farnesylated PEX19 CTD variant I195K (protein, UniProt P40855 161-299, looked up, variant I195K, C-terminal domain farnesylated) GMDEGDGEGNILPIMQSIMQNLLSKDVLYPSLKEKTEKYPEWLQSHRESLPPEQFEKYQEQHSVMCKICEQFEAETPTDSETTQKARFEMVLDLMQQLQDLGHPPKELAGEMPPGLNFDLDALNLSGPPGASGEQCLIM", "values": [{"measurement": "elution volume after start of the gradient", "setting": "[3]", "result": 16.41, "unit": "mL"}]}, {"molecule": "M255R farn: farnesylated PEX19 CTD variant M255R (protein, UniProt P40855 161-299, looked up, variant M255R, C-terminal domain farnesylated) GMDEGDGEGNILPIMQSIMQNLLSKDVLYPSLKEITEKYPEWLQSHRESLPPEQFEKYQEQHSVMCKICEQFEAETPTDSETTQKARFEMVLDLRQQLQDLGHPPKELAGEMPPGLNFDLDALNLSGPPGASGEQCLIM", "values": [{"measurement": "elution volume after start of the gradient", "setting": "[3]", "result": 17.9, "unit": "mL"}]}, {"molecule": "M179R farn: farnesylated PEX19 CTD variant M179R (protein, UniProt P40855 161-299, looked up, variant M179R, C-terminal domain farnesylated) GMDEGDGEGNILPIMQSIRQNLLSKDVLYPSLKEITEKYPEWLQSHRESLPPEQFEKYQEQHSVMCKICEQFEAETPTDSETTQKARFEMVLDLMQQLQDLGHPPKELAGEMPPGLNFDLDALNLSGPPGASGEQCLIM", "values": [{"measurement": "elution volume after start of the gradient", "setting": "[3]", "result": 11.26, "unit": "mL"}]}, {"molecule": "I195K: PEX19 CTD variant I195K (helix α2) (protein, farnesyl group on Cys296 (CaaX box); left off: His6, end not stated, cleaved) GMDEGDGEGNILPIMQSIMQNLLSKDVLYPSLKEKTEKYPEWLQSHRESLPPEQFEKYQEQHSVMCKICEQFEAETPTDSETTQKARFEMVLDLMQQLQDLGHPPKELAGEMPPGLNFDLDALNLSGPPGASGEQCLIM", "values": [{"measurement": "elution volume after start of the gradient", "setting": "[3]", "result": 8.40, "unit": "mL"}, {"measurement": "ΔV, difference in elution volume between farnesylated and non-farnesylated protein", "setting": "[3]", "result": 8.01, "unit": "mL"}]}, {"molecule": "M179R: PEX19 CTD variant M179R (helix α1) (protein, left off: His6, end not stated, cleaved) GMDEGDGEGNILPIMQSIRQNLLSKDVLYPSLKEITEKYPEWLQSHRESLPPEQFEKYQEQHSVMCKICEQFEAETPTDSETTQKARFEMVLDLMQQLQDLGHPPKELAGEMPPGLNFDLDALNLSGPPGASGEQCLIM", "values": [{"measurement": "elution volume after start of the gradient", "setting": "[3]", "result": 4.60, "unit": "mL"}, {"measurement": "functional complementation (in words)", "setting": "[1]", "result": "not capable of rescuing the ΔPEX19 phenotype; also recorded: cannot restore peroxisomal biogenesis"}]}, {"molecule": "PEX19 CTD farnesylated: human PEX19 CTD (residues 161–299) farnesylated in vitro (protein, farnesyl group on Cys296 (CaaX box); left off: His6, end not stated, cleaved, human PEX19 CTD (residues 161–299) farnesylated in vitro) GMDEGDGEGNILPIMQSIMQNLLSKDVLYPSLKEITEKYPEWLQSHRESLPPEQFEKYQEQHSVMCKICEQFEAETPTDSETTQKARFEMVLDLMQQLQDLGHPPKELAGEMPPGLNFDLDALNLSGPPGASGEQCLIM", "values": [{"measurement": "tumbling correlation time τc", "setting": "[2]", "result": 10.5, "unit": "ns"}, {"measurement": "oligomeric state in solution", "setting": "[2]", "result": "monomeric in solution"}, {"measurement": "elution volume after start of the gradient", "setting": "[3]", "result": 14.74, "unit": "mL"}]}]}
